From PMC9108619 come the findings set out here.

The target in the test is T1, UPF2 (endogenous), Q9HAU5.
T1 chain: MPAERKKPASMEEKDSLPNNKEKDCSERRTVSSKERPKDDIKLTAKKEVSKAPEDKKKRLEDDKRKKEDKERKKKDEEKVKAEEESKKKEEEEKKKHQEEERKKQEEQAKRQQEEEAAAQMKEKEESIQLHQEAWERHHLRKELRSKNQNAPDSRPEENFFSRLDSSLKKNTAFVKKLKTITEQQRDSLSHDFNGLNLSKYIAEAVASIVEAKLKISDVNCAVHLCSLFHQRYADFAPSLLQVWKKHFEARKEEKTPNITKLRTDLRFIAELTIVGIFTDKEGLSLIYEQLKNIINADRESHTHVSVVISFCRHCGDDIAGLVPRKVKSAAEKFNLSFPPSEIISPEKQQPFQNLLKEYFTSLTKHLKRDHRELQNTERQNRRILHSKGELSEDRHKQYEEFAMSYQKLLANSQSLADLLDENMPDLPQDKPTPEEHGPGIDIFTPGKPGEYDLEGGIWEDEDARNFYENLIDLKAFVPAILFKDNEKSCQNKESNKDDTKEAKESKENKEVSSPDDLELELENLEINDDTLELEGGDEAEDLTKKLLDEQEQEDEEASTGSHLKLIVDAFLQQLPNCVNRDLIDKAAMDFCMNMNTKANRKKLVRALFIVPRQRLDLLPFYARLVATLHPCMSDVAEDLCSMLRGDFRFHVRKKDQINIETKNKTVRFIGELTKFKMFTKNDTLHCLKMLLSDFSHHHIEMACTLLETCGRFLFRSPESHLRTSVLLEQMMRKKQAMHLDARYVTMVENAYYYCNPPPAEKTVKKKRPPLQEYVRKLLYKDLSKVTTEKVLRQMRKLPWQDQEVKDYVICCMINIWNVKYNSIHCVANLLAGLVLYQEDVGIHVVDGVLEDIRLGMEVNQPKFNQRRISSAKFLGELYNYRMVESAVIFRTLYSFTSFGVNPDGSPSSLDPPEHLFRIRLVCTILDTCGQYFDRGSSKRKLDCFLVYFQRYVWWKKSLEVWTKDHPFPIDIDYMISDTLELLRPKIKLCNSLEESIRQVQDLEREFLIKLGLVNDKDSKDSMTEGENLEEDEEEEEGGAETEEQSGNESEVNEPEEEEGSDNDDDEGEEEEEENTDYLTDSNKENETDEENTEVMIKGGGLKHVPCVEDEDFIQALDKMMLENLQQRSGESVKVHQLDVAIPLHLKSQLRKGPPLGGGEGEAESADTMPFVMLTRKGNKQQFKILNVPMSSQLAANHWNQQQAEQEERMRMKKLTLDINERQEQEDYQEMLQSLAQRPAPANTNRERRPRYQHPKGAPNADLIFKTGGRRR
Put plainly: TurboID proximity labelling, streptavidin enrichment, mass spectrometry. The settings on record: chain shown with the change; UPF3B KO + UPF3A KD cells; n = 3 biologically independent samples; read off a plot.

B1: FLAG-TurboID-UPF3B, Q9BZI7-2 K52D; RR56EE (protein)
chain: MKEEKEHRPKEKRVTLLTPAGATGSGGGTSGDSSKGEDKQDRNKEKKEALSDVVIEELPPTLTKEQLQEHLQPMPEHDYFEFFSNDTSLYPHMYARAYINFKNQEDIILFRDRFDGYVFLDNKGQEYPAIVEFAPFQKAAKKKTKKRDTKVGTIDDDPEYRKFLESYATDNEKMTSTPETLLEEIEAKNRELIAKKTTPLLSFLKNKQRMREEKREERRRREIERKRQREEERRKWKEEEKRKRKDIEKLKKIDRIPERDKLKDEPKIKLLKKPEKGDEKELDKREKAKKLDKENLSDERASGQSCTLPKRSDSELKDEKPKRPEDESGRDYREREREYERDQERILRERERLKRQEEERRRQKERYEKEKTFKRKEEEMKKEKDTLRDKGKKAESTESIGSSEKTEKKEEVVKRDRIRNKDRPAMQLYQPGARSRNRLCPPDDSTKSGDSAAERKQESGISHRKEGGEE
For B1, the other: log2 fold change was -1.8.
